We go through one substance from article PMC4787601.

Usually Kd stands for a measure of binding affinity in units of concentration. Read a high Kd as weaker binding.

The target of this assay is phospholamban peptide, first 21 amino acids, wild type (UniProt P26678). In words: SPR.
Sequence of UniProt P26678 (P26678 1-21): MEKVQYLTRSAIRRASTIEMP

Substance “purified AKAP7γ (from UniProt Q9P0M2 1-348) (natural protein)” had a Kd of 0.0133 µM.
